Test results as given in the supplement of paper PMC10567573.

B1: ALDH8A1 (parent)
chain: WSSRSPQERSRVLNQVADLLEQSL

Variants of: B1
Assay: protein stability index of a GFP-peptide fusion (GPS, HEK-293T) (PSI 1-6); higher = more stable
Details: c terminus: a fixed tail appended
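Further: lentivirally expressed fusions sorted by FACS into six bins by GFP to DsRed ratio, PSI derived from sequencing read proportions per bin multiplied by bin number.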

Variant	protein stability index
WSSRSPQERSRVLNQVADLLEQSV [L24V]	2.29
WSSRSPQERSRVLNQVADLLEQST [L24T]	3.34
WSSRSPQERSRVLNQVADLLEQSF [L24F]	2.03
WSSRSPQERSRVLNQVADLLEQSY [L24Y]	1.86
WSSRSPQERSRVLNQVADLLEQSR [L24R]	3.49
WSSRSPQERSRVLNQVADLLEQSQ [L24Q]	3.4
WSSRSPQERSRVKNQVADLLEQSL [L13K]	3.53
WSSRSPQERSRVDNQVADLLEQSL [L13D]	3.81
WSSRSPQERSRVWNQVADLLEQSL [L13W]	2.55
WSSRSPQERSRVHNQVADLLEQSL [L13H]	2.73
WSSRSPQERSRVSNQVADLLEQSL [L13S]	3.49
WSSRSPQERDRVLNQVADLLEQSL [S10D]	3.14
WSSRSPQERKRVLNQVADLLEQSL [S10K]	1.99
WSSRSPQERERVLNQVADLLEQSL [S10E]	3.11
WSSRSPQERRRVLNQVADLLEQSL [S10R]	2.95
WSSRSPQERCRVLNQVADLLEQSL [S10C]	2.36
WSSRSPQERHRVLNQVADLLEQSL [S10H]	2.58
WSSRSPQERARVLNQVADLLEQSL [S10A]	2.41
WSSRSPQERWRVLNQVADLLEQSL [S10W]	2.82
WSSRSPQERSRVLNQVADLLPQSL [E21P]	3.24
WSSRSPQERSRVLNQVADLLSQSL [E21S]	2.27
WSSRSPQERSRVLNQVADLLTQSL [E21T]	2.33
WSSRSPQERSRVLNQVADLLFQSL [E21F]	2.47
WSSRSPQERSRVLNQVADLLAQSL [E21A]	2.13

Variant	protein stability index
WSSRSPQERSRVLNQVADLLCQSL [E21C]	2.47
WSSRSPQERSRVLNQVADLLQQSL [E21Q]	2.38
WSSRSPQERSRVLNQVADLLKQSL [E21K]	1.61
WSRRSPQERSRVLNQVADLLEQSL [S3R]	2.28
WSDRSPQERSRVLNQVADLLEQSL [S3D]	2.77
WSARSPQERSRVLNQVADLLEQSL [S3A]	1.98
WSCRSPQERSRVLNQVADLLEQSL [S3C]	2.26
WSQRSPQERSRVLNQVADLLEQSL [S3Q]	2.52
WSMRSPQERSRVLNQVADLLEQSL [S3M]	2.27
WSSRSPQERSRVLPQVADLLEQSL [N14P]	3.21
WSSRSPQERSRVLTQVADLLEQSL [N14T]	2.82
WSSRSPQERSRVLFQVADLLEQSL [N14F]	1.26
WSSRSPQERSRVLLQVADLLEQSL [N14L]	1.62
WSSRSPQERSRVLVQVADLLEQSL [N14V]	2.1
WSSRSPQERSRVLQQVADLLEQSL [N14Q]	2.41
WSSRSPQERSRVLCQVADLLEQSL [N14C]	2.21
WSSRSPQERSRVLWQVADLLEQSL [N14W]	1.95
WSSRSPQERSRVLHQVADLLEQSL [N14H]	2.17
WSSRSPQERSRVLYQVADLLEQSL [N14Y]	4.15
WSSRSPQERSRVLGQVADLLEQSL [N14G]	2.38
WSSRVPQERSRVLNQVADLLEQSL [S5V]	2.81
WSSREPQERSRVLNQVADLLEQSL [S5E]	2.88
WSSRLPQERSRVLNQVADLLEQSL [S5L]	2.74
WSSRKPQERSRVLNQVADLLEQSL [S5K]	2.52

Variant	protein stability index
WSSRSNQERSRVLNQVADLLEQSL [P6N]	2.6
WSSRSWQERSRVLNQVADLLEQSL [P6W]	2.9
WSSRSTQERSRVLNQVADLLEQSL [P6T]	3.1
WSSRSFQERSRVLNQVADLLEQSL [P6F]	1.84
WSSRSCQERSRVLNQVADLLEQSL [P6C]	2.19
WSSRSEQERSRVLNQVADLLEQSL [P6E]	3.07
WSSRSAQERSRVLNQVADLLEQSL [P6A]	2.13
WSSRSSQERSRVLNQVADLLEQSL [P6S]	2.8
WSSRSDQERSRVLNQVADLLEQSL [P6D]	3.19
WSSRSIQERSRVLNQVADLLEQSL [P6I]	2.44
WSSRSPQERSRVLNQVNDLLEQSL [A17N]	3.3
WSSRSPQERSRVLNQVFDLLEQSL [A17F]	2.58
WSSRSPQERSRVLNQVCDLLEQSL [A17C]	2.34
WSSRSPQERSRVLNQVGDLLEQSL [A17G]	3.47
WSSRSPQERSRVLNQVSDLLEQSL [A17S]	3.02
WSSRSPQERSRVLNQVWDLLEQSL [A17W]	2.33
WSSRSPQERSRVLNQVEDLLEQSL [A17E]	3.88
WSSRSPQERSRVLNQVHDLLEQSL [A17H]	2.54
WSSRSPPERSRVLNQVADLLEQSL [Q7P]	2.9
WSSRSPNERSRVLNQVADLLEQSL [Q7N]	2.81
WSSRSPVERSRVLNQVADLLEQSL [Q7V]	2.53
WSSRSPHERSRVLNQVADLLEQSL [Q7H]	2.31
WSSRSPKERSRVLNQVADLLEQSL [Q7K]	2.61
WSSPSPQERSRVLNQVADLLEQSL [R4P]	2.64

Variant	protein stability index
WSSNSPQERSRVLNQVADLLEQSL [R4N]	2.61
WSSDSPQERSRVLNQVADLLEQSL [R4D]	2.79
WSSHSPQERSRVLNQVADLLEQSL [R4H]	2.71
WSSRSPQERSRVLNQVADLLEQQL [S23Q]	3.39
WSSRSPQERSRVLNQVADLLEQEL [S23E]	3.39
WSSRSPQERSRVLNQVADLLEQTL [S23T]	1.94
WSSRSPQERSRVLNQVADLLEQLL [S23L]	2.11
WSSRSPQERSRVLNQVADLLEQRL [S23R]	3.64
WSSRSPQERSRVLNQVADLLEQFL [S23F]	2.24
WSSRSPQERSRVLNQVADLLEQNL [S23N]	3.45
WSSRSPQERSRVLNQVADLLEQDL [S23D]	4.17
WSSRSPQERSRVLNQVADLLEQPL [S23P]	3.15
WSSRSPQERSRVLNQVADLLEQVL [S23V]	2.09
WESRSPQERSRVLNQVADLLEQSL [S2E]	2.9
WCSRSPQERSRVLNQVADLLEQSL [S2C]	1.87
WGSRSPQERSRVLNQVADLLEQSL [S2G]	2.5
WYSRSPQERSRVLNQVADLLEQSL [S2Y]	2.65
WRSRSPQERSRVLNQVADLLEQSL [S2R]	2.81
WMSRSPQERSRVLNQVADLLEQSL [S2M]	2.51
WWSRSPQERSRVLNQVADLLEQSL [S2W]	1.92
WQSRSPQERSRVLNQVADLLEQSL [S2Q]	2.17
WISRSPQERSRVLNQVADLLEQSL [S2I]	1.78
WHSRSPQERSRVLNQVADLLEQSL [S2H]	2.56
WSSRSPQERSRVLNPVADLLEQSL [Q15P]	3.13

Variant	protein stability index
WSSRSPQERSRVLNIVADLLEQSL [Q15I]	2.07
WSSRSPQERSRVLNKVADLLEQSL [Q15K]	2.13
WSSRSPQERSRVLNCVADLLEQSL [Q15C]	1.81
WSSRSPQERSRVLNTVADLLEQSL [Q15T]	2.59
WSSRSPQERSRVLNVVADLLEQSL [Q15V]	1.75
WSSRSPQERSRVLNRVADLLEQSL [Q15R]	2.85
WSSRSPQERSRVLNEVADLLEQSL [Q15E]	3.03
WSSRSPQERSRVLNWVADLLEQSL [Q15W]	1.79
WSSRSPQERSRVLNLVADLLEQSL [Q15L]	2.36
WSSRSPQERSRVLNAVADLLEQSL [Q15A]	1.51
WSSRSPQERSRVLNQVAYLLEQSL [D18Y]	1.81
WSSRSPQERSRVLNQVAILLEQSL [D18I]	1.76
WSSRSPQERSRVLNQVAPLLEQSL [D18P]	3.02
WSSRSPQERSRVLNQVARLLEQSL [D18R]	2.34
WSSRSPQERSRVLNQVAGLLEQSL [D18G]	2.76
WSSRSPQERSRVLNQVAWLLEQSL [D18W]	1.37
WSSRSPQERSRVLNQVACLLEQSL [D18C]	2.03
WSSRSPQERSRVLNQVAFLLEQSL [D18F]	1.48
WSSRSPQERSRVLNQVAQLLEQSL [D18Q]	1.59
WSSRSPQEYSRVLNQVADLLEQSL [R9Y]	2.21
WSSRSPQEQSRVLNQVADLLEQSL [R9Q]	2.24
WSSRSPQESSRVLNQVADLLEQSL [R9S]	2.87
WSSRSPQEHSRVLNQVADLLEQSL [R9H]	2.77
WSSRSPQEMSRVLNQVADLLEQSL [R9M]	2.16

Variant	protein stability index
WSSRSPQENSRVLNQVADLLEQSL [R9N]	2.86
WSSRSPQELSRVLNQVADLLEQSL [R9L]	2.48
WSSRSPQHRSRVLNQVADLLEQSL [E8H]	2.71
WSSRSPQSRSRVLNQVADLLEQSL [E8S]	2.16
WSSRSPQPRSRVLNQVADLLEQSL [E8P]	2.51
WSSRSPQWRSRVLNQVADLLEQSL [E8W]	2.36
WSSRSPQRRSRVLNQVADLLEQSL [E8R]	2.88
WSSRSPQCRSRVLNQVADLLEQSL [E8C]	1.6
WSSRSPQLRSRVLNQVADLLEQSL [E8L]	2.1
WSSRSPQNRSRVLNQVADLLEQSL [E8N]	2.23
WSSRSPQERSRMLNQVADLLEQSL [V12M]	2.31
WSSRSPQERSRELNQVADLLEQSL [V12E]	3.88
WSSRSPQERSRQLNQVADLLEQSL [V12Q]	3.45
WSSRSPQERSRNLNQVADLLEQSL [V12N]	3.99
WSSRSPQERSRLLNQVADLLEQSL [V12L]	2.06
WSSRSPQERSRYLNQVADLLEQSL [V12Y]	2.74
VSSRSPQERSRVLNQVADLLEQSL [W1V]	3.11
GSSRSPQERSRVLNQVADLLEQSL [W1G]	3.44
TSSRSPQERSRVLNQVADLLEQSL [W1T]	3.39
NSSRSPQERSRVLNQVADLLEQSL [W1N]	3.61
PSSRSPQERSRVLNQVADLLEQSL [W1P]	3.02
CSSRSPQERSRVLNQVADLLEQSL [W1C]	2.78
LSSRSPQERSRVLNQVADLLEQSL [W1L]	2.91
WSSRSPQERSRVLNQVADRLEQSL [L19R]	3.98

Variant	protein stability index
WSSRSPQERSRVLNQVADDLEQSL [L19D]	3.72
WSSRSPQERSRVLNQVADKLEQSL [L19K]	3.79
WSSRSPQERSRVLNQVADGLEQSL [L19G]	4.16
WSSRSPQERSRVLNQVADILEQSL [L19I]	2.31
WSSRSPQERSRVLNQVADCLEQSL [L19C]	3.14
WSSRSPQERSRVLNQVADNLEQSL [L19N]	4.23
WSSRSPQERSRVLNQVADMLEQSL [L19M]	2.52
WSSRSPQERSRVLNQVADHLEQSL [L19H]	3.97
WSSRSPQERSPVLNQVADLLEQSL [R11P]	2.58
WSSRSPQERSAVLNQVADLLEQSL [R11A]	3.4
WSSRSPQERSTVLNQVADLLEQSL [R11T]	2.48
WSSRSPQERSIVLNQVADLLEQSL [R11I]	2.21
WSSRSPQERSYVLNQVADLLEQSL [R11Y]	2.22
WSSRSPQERSEVLNQVADLLEQSL [R11E]	3.27
WSSRSPQERSQVLNQVADLLEQSL [R11Q]	2.38
WSSRSPQERSRVLNQVADLQEQSL [L20Q]	3.68
WSSRSPQERSRVLNQVADLVEQSL [L20V]	3.03
WSSRSPQERSRVLNQVADLAEQSL [L20A]	3.59
WSSRSPQERSRVLNQVADLNEQSL [L20N]	4.14
WSSRSPQERSRVLNQVADLEEQSL [L20E]	4.43
WSSRSPQERSRVLNQVADLTEQSL [L20T]	4.08
WSSRSPQERSRVLNQVADLKEQSL [L20K]	4.64
WSSRSPQERSRVLNQVADLGEQSL [L20G]	3.64
WSSRSPQERSRVLNQSADLLEQSL [V16S]	3.99

Variant	protein stability index
WSSRSPQERSRVLNQAADLLEQSL [V16A]	3.86
WSSRSPQERSRVLNQPADLLEQSL [V16P]	3.62
WSSRSPQERSRVLNQRADLLEQSL [V16R]	3.9
WSSRSPQERSRVLNQTADLLEQSL [V16T]	4.18
WSSRSPQERSRVLNQMADLLEQSL [V16M]	2.7
WSSRSPQERSRVLNQGADLLEQSL [V16G]	4.12
WSSRSPQERSRVLNQVADLLEHSL [Q22H]	3.34
WSSRSPQERSRVLNQVADLLETSL [Q22T]	2.53
WSSRSPQERSRVLNQVADLLERSL [Q22R]	2.72
WSSRSPQERSRVLNQVADLLENSL [Q22N]	2.61
WSSRSPQERSRVLNQVADLLELSL [Q22L]	1.65
WSSRSPQERSRVLNQVADLLEPSL [Q22P]	3.31
WSSRSPQERSRVLNQVADLLEASL [Q22A]	2.22
WSSRSPQERSRVLNQVADLLEVSL [Q22V]	1.91
WSSRSPQERSRVLNQVADLLEFSL [Q22F]	1.93
WSSRSPQERSRVLNQVADLLESSL [Q22S]	3.1
WSSRSPQERSRVLNQVADLLEWSL [Q22W]	1.95
WSSRSPQERSRVLNQVADLLEKSL [Q22K]	2.27
WSSRSPQERSRVLNQVADLLEYSL [Q22Y]	2.33
WSSRSPQERSRVLNQVADLLECSL [Q22C]	1.68
